No end group written: not given here.

Here are results for five substances from PMC12892846, “Biodistribution of the Bombesin Receptor-Targeted Radiopharmaceutical Precursor BBN/C1-C2 in a Prostate Cancer Model” (Modern Technologies in Medicine, 2025).

Data set [1] can be described thus: Stability analysis of Cy7.5-labeled peptides in phosphate-buffered saline (HPLC). The class given is physicochemical. As for the experimental part: After synthesis the chemical purity of the peptides was analyzed by reversed-phase chromatography; we used high-efficiency liquid chromatography: LC-20AD XR (Shimadzu, Japan) equipped with a spectrophotometric detector and a column Luna C18(2) ([…]). The elution was gradient, its mobile phase consisted of deionized water and acetonitrile. The acetonitrile content in a mobile phase was increased from 5% at the beginning of the study to 100% at the end of the study within 40 min. The flow rate was 1 ml/min. Detection was performed at a wavelength of 215 nm, using mass spectrometry with the MALDI-TOF MS FLEX mass spectrometer (Bruker Daltonics, Germany).
We studied the stability of both — the whole structures (Cy7.5-BBN/C1-C2, Cy7.5-GRP, Cy7.5-U5-Sth1a) and also the peptide complexes with Cy7.5. So, all peptides were incubated in the phosphate-buffered saline (pH 7.4) for 144 h, at 37°С. Every 24 h we drew the samples and analyzed them using high-efficiency liquid chromatography LC-20AD XR (Shimadzu, Japan), as described above. The stability of the complex with the dye was fixed similarly to the peptide stability fixation, as following from the accumulation of the free dye in samples.

Another data set concerns patients. As to conditions: patients with AMBA therapy; cited from earlier work. The source says: The key feature of these peptides is their ability to internalize inside the cells, acting as receptor agonists. At early stages of developing pharmaceuticals, this ability was an important condition for high and long-term absorption of a tumor by a pharmaceutical. However, currently, it appears to be a substantial deficiency, since radiolabeled agonists provide high absorption of radionuclides. One more major drawback of the ligands based on GRPR agonists is their absorption by normal non-tumor cells, particularly, the pancreatic cells. So, the potent GRPR agonist — AMBA (DOTA-Gl ...

In data set [2] the test system is Nu/Nu mice with PC-3 prostate cancer tumor. The experiment in a line: Semiquantitative ex vivo organ biodistribution on day 5 (fluorescence normalized to organ weight). The class given is in vivo, mouse. As to conditions: Cy7.5-labeled peptides, i.v. 19 nmol/kg, day 5, harvested organs, n=3. As to the method:
(§1) Since Cy7.5-GRP peptide stability was limited, firstly, 48 h at 37°С in phosphate-buffered saline, there were two time points used in the study — 2 and 5 days. Two weeks prior to the investigation, the animals were subcutaneously inoculated into the right side with PC-3 cells (1 mil cells in RPMI-1640, 100 μl (PanEco, Russia), and matrigel, 100 μl (ABW, China)) to form a tumor. When the tumor reached its optimal size (150–200 mm3), the animals (n=10) were divided into the following groups: group 1 animals were administered a pure dye (n=1); group 2 — were given Cy7.5-GRP peptide (n=3); group 3 — were administered Cy7.5-U5-Sth1a toxin (n=3); group 4 — had Cy7.5-BBN/C1-C2 administered (n=3). The animals were anesthetized with 3% isoflurane inhalation (Chemical Iberica, Spain) at the rate of 1 L/min within 10 min, then the dose was reduced up to 2%. The peptides were injected into the caudal vein at the rate of 19 nmol/kg. […] The regions of interest were manually determined along the organ borderline; then using the software, we calculated the total fluorescence for each region. Finally, the average fluorescence of the peptides in the organ was calculated, it being normalized to the organ weight.

Data set [3] shares this test system. The experiment in a line: In vivo surface fluorescent imaging of biodistribution. On the set-up: species or system mouse. As to conditions: Cy7.5-labeled peptides, i.v. 19 nmol/kg, Nu/Nu mice with PC-3 tumor, 2 days, n=3. As for the experimental part:
The study was carried out on Nu/Nu line male mice aged 9–10 weeks, weighing 26–28 g.
as §1

In data set [4] the test system is PC-3 prostate cancer solid tumor expressing GRPR. The experiment in a line: Tumor fluorescent imaging on days 2 and 5. The class given is in vivo, mouse. As to conditions: Cy7.5-labeled peptides, i.v. 19 nmol/kg, PC-3 tumor in Nu/Nu mice. As for the experimental part: as §1
For data set [5] the following is noted: cited from earlier work. An excerpt:
Currently, there have been introduced into clinical practice several radiolabeled ligands targeting GRPR and based on a gastrin-releasing peptide (GRP) analog isolated from amphibian — bombesin (BBN) [[5–8]]. […] In addition to the high concentration of radiopharmaceuticals in non-target organs, there is one more significant problem complicating cancer therapy — pharmaceutical stability.

On to “Cy7.5-GRP: GRP peptide labeled with Cyanine7.5 fluorescent dye (VPLPAGGGTVLTKMYPRGNHWAVGHLM; ends and bridges not checked; also: Cy7.5 NHS ester bound to peptide amino group (N-terminus or Lys not given here); UniProt P07492 24-50, looked up)”, for which the “time to which peptide stability was limited” value in data set [1] (37°C in phosphate-buffered saline) is reported as 48 h. Besides, in data set [1] (phosphate-buffered saline pH 7.4, 37°C, 48 h, reversed-phase HPLC C18, detection 215 nm), the “chemical purity / stability after 48 h” value is recorded as 64.5%. In data set [1] (phosphate-buffered saline pH 7.4, 37°C, 144 h, samples every 24 h, reversed-phase HPLC C18, detection 215 nm), the “chemical purity / stability after 144 h” value was found to be 46.8%. Also, the “chemical purity / stability at the start of incubation” value in data set [1] (phosphate-buffered saline pH 7.4, 37°C, start of incubation, reversed-phase HPLC C18, detection 215 nm) was found to be 95.7%.
For “DOTA-Gly-4-aminobenzoyl-BBN(7–14) [AMBA]”, the “absorption by normal organs in patients” value in the data set on patients was “significant absorption of the pharmaceutical by the pancreas and the gastrointestinal tract”.
In the case of “GRP: a short peptide with affinity to GRPR receptors (VPLPAGGGTVLTKMYPRGNHWAVGHLM; ends and bridges not checked; UniProt P07492 24-50, looked up)”, the “organs of accumulation / localization, ex vivo” value in data set [2] is “localized in the stomach and the pancreas”. In data set [3], the “main region of binding / accumulation on day 2” value is on record as “the spleen” and the “organ of excretion on day 2” value is “the kidney”. Also, the “localization of labeled peptide in the tumor on day 2” value in data set [4] is reported as “detected in the tumor to a greater extent than BBN/C1-C2”.
On to N4-AMA-DIG-[DPhe6,Sar11,LeuNHEt13]BBN, for which the resistance to proteolysis entry in data set [5] was “high resistance to proteolysis”.
As to bombesin, the proteolytic stability entry in data set [5] is “low proteolytic stability”.
